US20140363422A1 (IMMUNOQURE, published 2014)
Where two headings read alike, the source gives them in different places.

Columns and labels:
[1] = target: T1, human IL-22 (human, UniProt Q9GZX6 34-179); test: EC50 in summary table; assay not named, taken as binding ELISA; human IL-22 (h)
T1 construct: also called IL-22(h); interleukin-22
T1 sequence (looked up): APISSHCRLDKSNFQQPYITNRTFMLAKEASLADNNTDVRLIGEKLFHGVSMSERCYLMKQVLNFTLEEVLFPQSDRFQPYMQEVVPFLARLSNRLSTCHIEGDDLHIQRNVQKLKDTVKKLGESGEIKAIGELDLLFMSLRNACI

[2] = target: T2, mouse IL-22 (mouse, UniProt Q9JJY9 34-179); test: EC50 in summary table; assay not named, taken as binding ELISA; murine IL-22 (m)
T2 construct: also called murine IL-22; IL-22(m)
T2 sequence (looked up): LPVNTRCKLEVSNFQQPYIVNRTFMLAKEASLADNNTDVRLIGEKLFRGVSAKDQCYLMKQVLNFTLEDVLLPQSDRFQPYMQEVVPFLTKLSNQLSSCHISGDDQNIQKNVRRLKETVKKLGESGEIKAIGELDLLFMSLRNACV

[3] = target: T1, human IL-22; test: cell-based or functional assay
[4] = target: T1, human IL-22; test: SPR (ProteOn XPR36), antibody captured by anti-human IgG, IL-22 injected at 100 to 1.23 nM, 1:1 Langmuir fit, grouped
Description: (§1) Data was referenced using the interspot regions of the sensor chip.
(§2) For affinity determination of the antibodies of the present invention SPR measurements were performed using a ProteOn™ XPR36 instrument, according to the instructions of the manufacturer (BIO-RAD; Hercules Calif., USA). First, anti-human IgG was coupled simultaneously on 5 surfaces of the 6×6 interaction array of a GLC sensor chip by EDC/NHS chemistry, no antibody was sixth immobilized on the sixth surface, but the surface was treated with the same activation and deactivation protocol as the other five surfaces. The MABs (ligands) to be tested were injected afterwards into 6 channels of the chip (in the vertical direction) and simultaneously captured at very similar capture efficiency and percentage activity. […] Data was referenced using the interspot regions between the flow channels. […] Binding experiments were repeated twice and data is represented as a mean of two independent experiments.

[5] = target: T1, human IL-22; test: EC50 in summary table; assay not named, taken as binding ELISA
[6] = target: T3, human IL-17F (human, UniProt Q96PD4 31-163); test: SPR (ProteOn XPR36), antibody captured by anti-human IgG, IL-17F injected
T3 construct: Bought recombinant protein; also called IL-17F (h); interleukin-17F
T3 sequence (looked up): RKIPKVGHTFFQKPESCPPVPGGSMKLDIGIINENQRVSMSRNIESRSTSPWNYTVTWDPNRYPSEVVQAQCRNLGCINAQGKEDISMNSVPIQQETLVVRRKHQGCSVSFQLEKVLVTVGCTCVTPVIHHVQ

[7] = target: T1, human IL-22; test: SPR (ProteOn XPR36), antibody captured by anti-human IgG, IL-22 injected at 100 to 1.23 nM, 1:1 Langmuir fit, mean of two experiments
Description: as §1, §2

[8] = target: T1, human IL-22; test: SPR (ProteOn XPR36), antibody captured by anti-human IgG (L2), IL-22 injected at 100 to 1.23 nM and buffer
[9] = target: T3, human IL-17F; test: cell-based or functional assay
[10] = target: T3, human IL-17F; test: EC50 in summary table; assay not named, taken as binding ELISA
[11] = target: T3, human IL-17F; test: ELISA, titration of antibody 9A2 on recombinant human IL17F
[12] = target: T1, human IL-22; test: SPR (ProteOn XPR36), antibody captured by anti-human IgG, IL-22 injected at 100 to 1.23 nM, 1:1 Langmuir fit, grouped; remark: listed apart in the source
Description: as §1, §2

[13] = target: T4, IL-17A/IL-17F heterodimer (UniProt Q16552 24-155; Q96PD4 31-163); test: cell-based or functional assay
T4 sequence (looked up) 1: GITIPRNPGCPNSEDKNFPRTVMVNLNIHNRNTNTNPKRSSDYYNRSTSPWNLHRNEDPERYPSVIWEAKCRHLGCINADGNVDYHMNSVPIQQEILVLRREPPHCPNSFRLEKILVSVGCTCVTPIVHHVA
T4 sequence (looked up) 2: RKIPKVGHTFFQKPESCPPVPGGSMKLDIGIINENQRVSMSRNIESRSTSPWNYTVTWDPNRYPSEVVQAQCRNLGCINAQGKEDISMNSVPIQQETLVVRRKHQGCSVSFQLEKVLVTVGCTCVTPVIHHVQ

[14] = target: T1, human IL-22; test: SPR (ProteOn XPR36), antibody captured by anti-human IgG (L1), IL-22 injected at 100 to 1.23 nM and buffer
[15] = target: T5, human IL-17A (human, UniProt Q16552 24-155); test: EC50 in summary table; assay not named, taken as binding ELISA; IL-17A (A)
T5 construct: Bought recombinant protein; also called CTLA-8
T5 sequence (looked up): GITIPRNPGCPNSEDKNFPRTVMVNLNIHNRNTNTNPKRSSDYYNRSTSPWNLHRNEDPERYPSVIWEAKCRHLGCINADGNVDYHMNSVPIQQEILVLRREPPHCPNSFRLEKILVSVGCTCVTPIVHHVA

[16] = target: T1, human IL-22; test: SPR (ProteOn XPR36), antibody captured by anti-human IgG (L3), IL-22 injected at 100 to 1.23 nM and buffer
[17] = target: T3, human IL-17F; test: EC50 in summary table; assay not named, taken as binding ELISA; IL-17F (F)

B1: IL-22 specific antibody 41D11 (antibody, human IgG1, lambda, V domains shown)
VH: QVQLHESGPGLVKPSETLSVTCSLSGGSISSSSHLWAWIRQPPEKGLEYIGRIHYRGSVSYNPSLKSRAAISVDTAKNQFSLTLSAVTAADTSFYYCARLDMGAIDKWGQGTLVIVSS
V domain: QPVLTQSPSASASLGASIKLTCTLSSGHSNYDIAWHQQQSGKGPRFLMRVNNGGSHNKGDGIPDRFSGSSSGAERYLTISSLQSEDEADYYCQTWGTGTHVFGTG
notes: also called a-IL-22-41D11
[1]
  EC50: 0.005 µg/mL
[2]
  EC50: 0.06 µg/mL
[3]
  IC50 Neutralization (ng/ml); IL-10 production by Colo205 cells: 38 ng/mL

B2: IL-22 specific antibody 35G11 (antibody, human IgG4, lambda, V domains shown)
VH: QVQLVQSGSELRRPGASVNISCKASGYGFNTYAMNWVRQAPGQGPEWMGWINTDTGDPTYAQGFTGRFAFFLDTSASTAFLQITRLTGEDTAVYFCARTRNNWNGVYYHYSGLDVWGQGTTVTVSS
VL: QSVLTQPPSASGTPGQTVTISCSGSSPNLGDNYVYWYHQVPGTAPKLLIFRNTQRPSGVTDRFSGSKYGTSASLAISDLRSDDEGDFYCASWDDRLSRLVFGGGTKLTVLG
notes: also called a-IL-22-35G11; aIL-22 35G11
[4]
  Kd: 0.0457 nM
  koff: 8.09e-05 s⁻¹
  kon: 1.77e+06 M⁻¹ s⁻¹
[5]
  EC50: 0.007 µg/mL
[6]
  binding result: no binding (tested: 100 nM to 1.23 nM)
[7]
  Kd: 0.039 nM

B3: IL-17F specific antibody 9A2 (antibody, human IgG1, kappa, V domains shown)
VH: EVQLEESGGGLVQPGGSLRLSCAASGFPFSNYEMNWVRQAPGKGLEWISYISVSGGPAHYADSVKGRFTISRDDATKSLFLQMNRLRADDTAVYYCVRREYVTGRNYNYYPYMDVWGTGTTVTVSP
VL: DIQMTQSPSSLSASVGDRVTITCRASQTISDYLNWYQHKPGEAPKLLIYSASTLQRGVPSRFSGSGSGTDFVFTISSLQSDDFATYYCQQTSSTALTFGGGTKVEVKR
notes: also called a-IL17-9A2
[8]
  binding result: no binding (tested: 100 nM)
[9]
  IC50 Neutralization (ng/ml); GRO-alpha production by NCTC 2544 keratinocytes: 45 ng/mL
[6]
  kon: ~800000 M⁻¹ s⁻¹
[10]
  EC50: 0.003 µg/mL
[11]
  EC50 (read off the curve): ~0.02 µg/mL

B4: IL-22 specific antibody 51G4 (antibody, human IgG2, lambda, V domains shown)
VH: EVQLVQSGAEVKKPGASVKVSCKTSGYKFALYDIHWVRQAPGQGLEWMGWINAANGDTEYSQKFEGRVTITRDTSATTVYMELNSLTYGDTAVYYCAREEGLYNWFDPWGQGTLVTVSS
VL: SYELTQDPAVSVALGQTVRITCQGDSLRIYYANWYQQKPGQAPVLVIYGKSNRPSGIPDRFSASSSGNTASLTITGAQAEDEADYYCNSRDSSDKHPVPFGGGTKLTVLS
notes: also called a-IL-22-51G4
[5]
  EC50: 0.067 to 0.148 µg/mL

B5: IL-22 specific antibody 30G1 (antibody, human IgG1, kappa, V domains shown)
VH: EVQLLESGGGLVQPGGSLRLSCAASGFTFSTYAMSWVRQAPGKGLEWVSTITSSGGATYHADSVKGRLTISRDNSKNTLYLEMNSLRVEDTAVYYCAKDWGRTVYAVIKDLDIWGQGTLVTVSS
VL: EIVMTQSPAILSVSPGERATLSCRASQSVSNYLAWFQQKPGQAPRLLIYDTSKRATGTPARFSGSGSGTDFTLTISSLEPEDFAVYFCQQRSDWPQYTFGQGTKLEIKR
notes: also called aIL-22 30G1
[12]
  Kd: 0.0352 nM
  koff: 1.55e-05 s⁻¹
  kon: 441000 M⁻¹ s⁻¹
[1]
  EC50: 0.003 µg/mL
[2]
  EC50: 0.015 µg/mL
[6]
  binding result: no binding (tested: 100 nM to 1.23 nM)
[7]
  Kd: 0.0365 nM

B6: IL-17F specific antibody 24D3 (antibody, human IgG1, lambda, V domains shown)
VH: EVKLEESGGDLVKPGGSLRLSCVASGFTFGTAWMSWVRQAPGKGLEWVGRISNKDTGGRIDYAAPVRGRFAISRDDSKATLFLQMNSLKTEDTAVYFCTTNFYDVLTGDHVDYWGQGTVVVVSS
VL: SYELTQPPSVSVSPGETARIPCSGETLPKKLVYWYQQKPGQAPVLMIYKDSERPSRISERFSGSNSGTMASLTISGVQAEDEADYYCQTSDSSGVVFGGGTKLTVLG
notes: also called a-IL17-24D3; aIL-17 24D3
[9]
  IC50 Neutralization (ng/ml); GRO-alpha production by NCTC 2544 keratinocytes: 12 to 22 ng/mL
[13]
  IC50 Neutralization (ng/ml); GRO-alpha production by NCTC 2544 keratinocytes: 6 to 14 ng/mL
[14]
  binding result: no binding (tested: 100 nM)
[6]
  kon: ~600000 M⁻¹ s⁻¹
[10]
  EC50: 0.002 µg/mL

B7: IL-17F and IL-17A specific antibody 17E3 (antibody, human IgG1, kappa, V domains shown)
VH: QVQLVQSGAEVAKPGASVRLSCKASGFSFIKYYMHWVRQAPGQGLEWMGVIEPTGGGTSSAQKFRDRVTLSRDTSTATVHLEVSRLTLEDTGIYFCVRDSIYCKHGTCHRTVIDAFDIWGQGTAVTVSS
VL: DIQMTQSPSSLSASVGDRVTITCRSSQDIKNDLAWYQQKPGKAPERLIYAASNLQSGVPSRFSGSGSGTEFSLTISGLQPEDFATYYCLQHNSYPLLTFGGGTKVEIKR
notes: also called a-IL17-17E3
[15]
  EC50: 0.824 µg/mL
[16]
  binding result: no binding (tested: 100 nM)
[9]
  IC50 Neutralization (ng/ml); GRO-alpha production by NCTC 2544 keratinocytes: 15 ng/mL
[13]
  IC50 Neutralization (ng/ml); GRO-alpha production by NCTC 2544 keratinocytes: 12 ng/mL
[6]
  kon: ~300000 M⁻¹ s⁻¹
[17]
  EC50: 0.002 µg/mL
